The DeepSol protein solubility set

Assay: soluble on expression in E. coli; label from the status in PepcDB or PDB records

Sequence	soluble on expression in E. coli
MGSDKIHHHHHHMKYRFENHCVDKQCNLHIFADGKAAHSSTPEDGVNAVTHLAALLSPELNDKPWPKTSASLTVAAMNELVGLGIYAEQFGDLAYKDDFMGPLTLAPTVVVQTQKGTEVTINLRRPVGKTPELLAKQAREALALWQDKHQVQLADIESYWGEPMVMKGAPQQQTLLDVFAHFTGIVDPKPVAIGGSTNSKLFPNALSFGPAMPGVEYTGHTEKEFITHKQFMLNLKMYTAAFIELSAVK	not soluble
MGSDKIHHHHHHMKYTYREAGVDVERGESFAKTIKSAVKLPEWVMKEPTGYASILTITTPPVVVTADGIGTKLILHRKHGTWRYAAEDLVGMNYNDLVCVGARPVAFLDYLGVERISEEHESFIKELVNVLDSVDVKLVGGETAEMPDVYRGDWDAVGFAVGVLEKRIPVDKIKEGDVIVGIPSSGFHSNGWSLIRRIIKEESIKIEELPFELLKGTRIYREVIELFDLVKGIAHVTGGGVVRALKRVLGKLGAHVSLPKRDFVDWILKYVDFNEAVNTFNMGVGMFLIVEKQKVDEVLARVDGTVVGKVSSDWRIEYGGEGG	not soluble
MGSDKIHHHHHHMLATYLKSLNENDRSLYNEGEDVIQGLIQSPKTLPPKYFYDDYGSELFEQICELSEYYPTRTEAWILRQYADEIAQITGNCELVELGSGSSTKTLFLLDAYQKIASHCRYIPIDVSHGILKSSVLKLQQKYPNFFVEGLIGTYEQALIKLESTFAASRMIFFLGSSLGNFNPRECDDFLRQITRTLQAGDYFLLGIDLQKPKEILEPAYNDSQGVTAAFNLNILSHLNWRFQGNFDLSLFTHQAIYNENDAQIEMYLHCQKSHEVSLEALDLQVSFAGGESILTEISRKFDLVNMQKQLETHGLKTLKTWTDPNQWFGLILCQA	not soluble
MGSDKIHHHHHHMLDKIELFILDMDGTFYLDDSLLPGSLEFLETLKEKNKRFVFFTNNSSLGAQDYVRKLRNMGVDVPDDAVVTSGEITAEHMLKRFGRCRIFLLGTPQLKKVFEAYGHVIDEENPDFVVLGFDKTLTYERLKKACILLRKGKFYIATHPDINCPSKEGPVPDAGSIMAAIEASTGRKPDLIAGKPNPLVVDVISEKFGVPKERMAMVGDRLYTDVKLGKNAGIVSILVLTGETTPEDLERAETKPDFVFKNLGELAKAVQ	not soluble
MGSDKIHHHHHHMLDPAGARVQIAKGRRDAADEPEDEDQMTRLEAFGDRKFPAAELILSSEGRGWDGIGTQVRRHPAGEIPVPVPDQMEVTLAIAGSQTGRVERRSGSAFQNTTARPGTLWFCPIGVTEDSIRITETLPMVQHVFLAKSQFDSLSELSSRSLSPASIAYLADVNDELVRQICQRIYREAQEETSSGKILIDCLAQSLVAHLVSDYSHDSRIHLGPDSGPSKLDDARLRRVLDYIYGNIDQDLSLSKLSEVACLSKHHFARAFREATGTPPYRFISERRLDHALNLLKDSRLSLAEIAYICRFSSQATFTRAFRRHVGTSPGEYRHLSRT	not soluble
MGSDKIHHHHHHMLDVVANQDKSIVVKQLRYGRDNEVLVVDEWQLHPAEHWAIFATDSYCGSLLGRILTGDIQPDEGTIAGLPQRIGWVSLGLQQVLLERELEKDELDYGSSVEFLVLECCQDAAQLAPLLQKVGLEPLRLRGFRQLSTGETRRVMLARALAMLPQLLILDDPYAGLDVEHQASLSELLSEVAEHTQLLIITSRQEELPPCISHVALFNGEMLKSGQSVHKLSQPMSIEQWHNHPVMAQLNALSAQRSNELLALMERQRHNAEAFDPLVEIKNGKVEYVSGLIFSGVNWRIEAGQHWQVRGPNGCGKSTLLGLILGDHPQCYSNDITLFGRPRGSGESIWQIKQRIGIVSSALHLQYRVSCSVLDVLLSGFFDSIGLYQKPTKPQLDLAKEWLAILHMTGLASTSFKKLDYGQQRLLLIGRALIKQPLLLILDEPYQGLDFINRTLVMRALKMIAEHHLSQLLYVSHHREDALPAIHHFVDFIKQGDGYSVQVSDSESKD	not soluble
MGSDKIHHHHHHMLITNVRPWGGDNVDLEVHEGRIAAVHPAGTGDVSADAAGGTIDGRGRIAFPAFTDVHVHLDSTRIGLPFREHTASPGVWNMMCNDRENWRDTPIPYADVVAGTLERMIARGTTRVRSYAQIDVDCKLERFEAVLAAKERFAHAAEVEVMAFPQAGLLLEDGTVPLLEEALRAGATTIGGIDPCQLDRDPARHLDIVFELAEKYGVDVDIHLHEPGHLGVFSAELIFERTRALGMQGRVSLSHAYDLANVHPDVTARIVEQMAELDVAWATVAPASGGAQFDLARMTEAGIRVGLGEDGQRDYWSPYGNCDMLDRTWQLAFTHRLRKDRLIEHCAAIATVGGASIMDRTVPRLTSPDDRPGLTPGDRADVVLVDGETVTSTVMDRGTDRTVIHDGRLVADGLAVLPRAAG	not soluble
MGSDKIHHHHHHMLLKSPDKSPEKILKLFDEVYSKARIFYLLRTAIDLNLFEYLSSFKTAKELAEILDADLILMEYMLKILNELDLIESKVVSERIYYKNAEITNIYLKKDSNYSIINPIYSYFENIKNWENLADILKNKSNCSNMDVDNFFPKVVRRMADECKCWELQKVLNYMAKYEEFKNAKKLLDLAGGHGLYAIGFSMLNRNLKCYVFDLPNVIEETKKFIKKYNAKNVFTITGDFYKDDIGKGYDIIFCSYNPGGKNPKIAEKVYNALNEGGLFINKQFFPDKEEGIEDYINNMEWNFSKPEGLKKGKIRYTFEGDLNLNDYLKYLEDLGFKILEVVDMSELLGLDENSSSFRKSANPSDSLRFKDNSPAKMIVAKKL	not soluble
MGSDKIHHHHHHMLLNVKQDFCLAGPGYLLNHSVGRPLKSTEQALKQAFFAPWQESGREPWGQWLGVIDNFTAALASLFNGQPQDFCPQVNLSSALTKIVMSLDRLTRDLTRNGGAVVLMSEIDFPSMGFALKKALPASCELRFIPKSLDVTDPNVWDAHICDDVDLVFVSHAYSNTGQQAPLAQIISLARERGCLSLVDVAQSAGILPLDLAKLQPDFMIGSSVKWLCSGPGAAYLWVNPAILPECQPQDVGWFSHENPFEFDIHDFRYHPTALRFWGGTPSIAPYAIAAHSIEYFANIGSQVMREHNLQLMEPVVQALDNELVSPQEVDKRSGTIILQFGERQPQILAALAAANISVDTRSLGIRVSPHIYNDEADIARLLGVIKANR	not soluble
MGSDKIHHHHHHMLLRKAFKFEIRPNGEQIRKIKQFCGCSRFVFNRALAWQNEQYEQDNNQKFSYSKLTSLLPQWKKELIWLKECHSQVLQQSLKDLESAFKNFFQQRADFPKFKKKGIKESFRFPQGCKIQPQNDRLYLPKIGWVRYRNSREIVGEVKNVTVSQKCGRFFVSIQTEFEHEIPMHKGGEIGIDMGIARFATLSNGEFFEPINAFKTYKGKLAKLQKQLKNKVKFSKNWQKLKEKIGKLHHKIANCRKDFLHKISTQISKNHAMIYVEDLQVANMSKSAKGTVEAHGKNVKQKSGLNRSIRDQSWFEFRRQLDYKTQWLGGFLVAVPAQNTSRTCPCCGHIAKENRETQAHFECVECGYTENADVVGAMNVLTRGQAIVQA	not soluble
MGSDKIHHHHHHMLMNIGKVDNIKIYTLAEDYAGYNSPFWSQHGLSFLIEVESNGIKKRILFDTATYAEPILFNMKLLNINPKSIDMIILSHNHFDHTGGLFGIMKEINKEIPIFAHPNIFKVSFATEPEFMLAGTLNKTLKEDIEKLGGRWVLSRDPIRLMPGIFTLGEIEDEEKINFEKKPTIGLYKLENGRVVLDNVEDEIGLAIVTEKGLIIVSGCSHPGIVSMVKKSIKISGINKVYAVIGGFHLIDADNERIVSTIKALKKLGVKKICTGHCTGFKAENMFMEEFKEDFERLHAGKIIKF	not soluble
MGSDKIHHHHHHMLQTLQKDAIELLKTLIKTESFSKEEHNTAEILNTFLVERGVETIREKNNVWAFNKHFDKNKPTILLNSHHDTVKPNPGYTNDPFEPIVKDGKLFGLGSNDAGGCLVSLIATFLHFYNETNLKYNFCIAATAEEEISGFDGLELVYPKLGPIDFAIVGEPTLMDIAVAEKGLMVVDCVAIGKAGHAAREEGENAIYIALKDIEWIRNYKFERVSPHLGPMKMSVTIINAGYQHNVVPEKCHFTIDVRITEEYKNEEVLKIIDDNIQSEVNPRSVRLRPSFIDPNHELVHAAIKHGAKTYGSPTTSDQALIPVPSVKMGPGNSARSHTANEFIWLIEIEEGIEKYIKVLSEIVLA	not soluble
